Measurements taken from patent US8092989B2, “Targeting the histone code as a bacterial strategy for selectively modulating gene expression” (Institut Pasteur, priority 2005, dated 2012).

Experiments:
[1] = system: histone H3 phosphorylation at Ser 10 (H3 pS10); assay: H3 pS10 immunofluorescence in HeLa cells infected with the ospF strain, kinase inhibitors; format: cell-based; conditions: 60 min pretreatment with both U0126 (10 μM) and SB203180 (2.5 μM), infection 30 min
Experimental: Indirect immunofluorescence detection was performed with anti-phospho-histone H3 S10 polyclonal antibody. […] Cells were left untreated (ns) or infected with the ospF strain for 30 min. IF was performed with anti-H3 methyl K9-pS10 antibody.
Indirect immunofluorescence. Cells were fixed with 3.7% paraformaldehyde in PBS for 10 min, permeabilized with 0.5% Triton-X in PBS. The following antibodies were used: anti-phospho-p42/p44 antibody (Sigma); anti-p42/p44, anti-phospho-histone H3 S10 (Upstate Cell Signaling), anti-acetyl histone H4 (Lys14) (Upstate Biotechnology) antibodies.

[2] = system: histone H3 purified from calf thymus; assay: In vitro dephosphorylation of histone H3 / H3 tail peptides; format: biochemical; conditions: 2 hours at 30° C., even when enzyme concentration increased 100 fold
Experimental: (§1) (A) HeLa cells were left untreated (ns) or infected with the WT or the ospF strain at the indicated time. Indirect immunofluorescence detection was performed with anti-phospho-histone H3 S10 polyclonal antibody. (B) HeLa cells were synchronized by a double thymidine block (2 mM thymidine) and left untreated (ns) or infected with the WT or the ospF strain at the indicated time. Immunoblots were probed with anti-H3 phospho S10 (H3 pS10), anti-H3 methyl K9-phospho S10(H3 metK9-pS10), anti-H3 phospho S10. acetyl-K14 (H3 p-S10/Ac-K14), anti Histone H3 polyclonal anti-pp38 and pErk antibodies. (C) HeLa cells were transfected with pRK5myc-OspF vector and treated with 200 nM okadaic acid for 3 hours. IF was performed with anti-myc (red) and anti-H3 methyl K9-pS10 (green) antibodies. […] (D) One micogram of calf-thymus histone (Sigma) was incubated with 300 ng of His-OspF or with 120 U of λ phosphatase for 2 hours at 30° C. Western blot was performed with an anti-metK9-pS10 antibody. (E) One micogram of peptide metK9-S10 was spotted onto a nitrocellulose membrane that was incubated with buffers, 5 μg/ml of OspF, or 2000 U/ml of lambda phosphatase for 2 hours at 30° C. Western blot was performed with an anti-metK9-pS10 antibody. (F) HeLa cells were pretreated for 60 min with either the MEK1 inhibitor U0126 (10 μM) or the p38 inhibitor SB203180 (2.5 μM) or both. […]

pErk2-GST = assay: In vitro phosphatase assay on phospho-Erk2 (Western blot); conditions: purified protein, Western blot with anti phospho-Erk
[3] = system: histone H3 phosphorylation at Ser 10 (H3 pS10); assay: H3 pS10 induced by okadaic acid in HeLa cells overexpressing OspF; format: cell-based; conditions: HeLa transfected with pRK5myc-OspF, 200 nM okadaic acid 3 hours
Experimental: as §1

IL-12 = assay: Murine model of pulmonary infection, lung cytokines by ELISA; format: in vivo, mice; conditions: lungs infected with M90T or ospF strain, 24 hours post-infection (FIG. 10)
Experimental: The cytokine/chemokine network induced upon infection with Shigella flexneri was analyzed by comparing the profiles obtained upon infection with the invasive strain carrying the virulence plasmid (INV+) and the non-invasive, plasmidless strain (INV−). The murine model of pulmonary infection was used since it was the only valid model to analyze the specific host immune response upon Shigella infection. Following infection with INV−, a Th1 type-network (IL-12, IL-18, IFN-γ, CCL9, CCL10, CCL13, and CCL4) was induced. In contrast, a Th2/Tr1 profile (IL-10, CCL1, CCL24 and CCL2) was induced upon infection with INV+. The difference observed was not due to the bacterial dose used for the infection, but was dependent on the presence or absence of the virulence plasmid.
Some of these bacterial effectors are injected within the host cells by a type III secretion apparatus. Use of different bacterial mutants, has highlighted that the bacterial effectors involved in the immunomodulation were effectors secreted by the type III-secretion apparatus. Finally, OspF, a type III-secreted bacterial effector was responsible fore the control of IL-12 production (FIG. 10).

^33P-labeled Erk2 = assay: 33P-labeled Erk2 phosphatase assay, steady state kinetics; conditions: 100 nM phosphatase, pH 8, 30° C., 10 minutes, Michaelis-Menten fit
Experimental: Preparation of the ^33P-labeled Erk2 kinase substrate. The in vitro phosphorylation of the GST-Erk2 fusion protein was carried out by incubating 500 μg purified GST-Erk2 coupled to beads with 20 μg His6-tagged activated MEK1 (Upstate Cell Signaling) in a kinase buffer (50 mM Tris pH 7.5, 2 mM DTT, 10 mM MgCl2) with 100 μM ATP (γ-3P ATP, 3000 Ci/mmol) for 2 hours at 30° C. The beads were washed 5 times with 30 ml of 1× PBS and eluted in 50 mM Tris pH 8, 10 mM glutathione, and 10% glycerol. The fractions were dialyzed overnight to remove residual ATP in 50 mM Tris pH8, 50 mM NaCl, and 10% glycerol.
In vitro phosphatase assay. […] Therefore, the reaction was initiated by the addition of the phosphatase, incubated for 10 minutes at 30° C. and terminated by adding 200 μl cold 20% trichloroacetic acid. The samples were centrifuged at 10,000×g and 200 μl of the supernatant was mixed with 5 ml of scintillation fluid for taking radioactivity measurements. The product generated (inorganic phosphate) was kept below 5% of the initial substrate concentrations. Reactions containing the Erk2 substrate and buffer without phosphatase was used as a blank for each data point. The data were fitted to the Michaelis-Menten equation using the software Kaleidagraph.
The kinetic parameters were determined by following the production of radioactive inorganic phosphate.

NF-κB reporter construct = assay: TNF-α-induced NF-κB reporter construct in Caco 2 cells; format: cell-based, human; conditions: overexpression in Caco 2 cells
Excerpt: In addition to the classical MAPK-dependent target genes, OspF also repressed expression of some NF-κB-dependent chemokine genes such as IL-8. The IL-8 promoter contains an NF-κB binding site essential for expression of this gene (Hoffmann et al., 2002). Therefore, the inventors looked whether OspF interferes with the NF-κB signaling pathway. […] (FIG. 5E).

phospho JNK1 Histidine = target: T1, phospho JNK1 Histidine (Homo sapiens, UniProt P45983); assay: In vitro phosphatase assay on phospho JNK1 (Western blot); format: biochemical; conditions: purified phospho-MAP kinase, 50 nM
T1 construct: His
T1 sequence (P45983 whole entry): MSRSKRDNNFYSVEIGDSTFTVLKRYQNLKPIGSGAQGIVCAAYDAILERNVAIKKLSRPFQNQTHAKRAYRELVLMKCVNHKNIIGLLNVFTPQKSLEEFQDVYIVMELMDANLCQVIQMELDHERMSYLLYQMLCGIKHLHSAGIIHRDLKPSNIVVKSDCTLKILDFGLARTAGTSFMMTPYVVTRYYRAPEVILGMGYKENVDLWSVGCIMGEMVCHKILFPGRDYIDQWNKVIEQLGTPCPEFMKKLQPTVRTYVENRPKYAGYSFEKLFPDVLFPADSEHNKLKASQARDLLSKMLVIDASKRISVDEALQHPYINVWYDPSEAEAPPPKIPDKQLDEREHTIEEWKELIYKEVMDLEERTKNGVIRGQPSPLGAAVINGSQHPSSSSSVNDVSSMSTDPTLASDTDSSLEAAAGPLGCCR

phospho p38-GST = target: T2, phospho p38-GST (Homo sapiens, UniProt Q16539); assay: In vitro phosphatase assay on phospho p38 (Western blot); format: biochemical; conditions: purified phospho-MAP kinase, 50 nM
T2 construct: GST
T2 sequence (Q16539 whole entry): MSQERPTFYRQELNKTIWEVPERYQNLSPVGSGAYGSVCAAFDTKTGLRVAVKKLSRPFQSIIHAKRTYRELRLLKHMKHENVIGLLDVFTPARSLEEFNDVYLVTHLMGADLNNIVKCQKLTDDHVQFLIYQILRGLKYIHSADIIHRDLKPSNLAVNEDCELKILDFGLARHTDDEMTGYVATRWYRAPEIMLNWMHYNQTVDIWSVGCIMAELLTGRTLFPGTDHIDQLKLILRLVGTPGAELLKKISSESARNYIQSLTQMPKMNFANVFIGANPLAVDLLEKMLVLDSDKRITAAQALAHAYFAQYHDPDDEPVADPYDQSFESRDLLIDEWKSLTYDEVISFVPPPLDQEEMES

p46 and p54 JNK kinases = assay: JNK phosphorylation in transfected HeLa cells stimulated by TNF; format: cell-based; conditions: TNF stimulation
endogenous Erk = assay: Erk phosphorylation in transfected HeLa cells stimulated by PMA; conditions: HeLa cells transfected with expression plasmid, PMA stimulation
p38 MAP kinases = assay: p38 phosphorylation in transfected HeLa cells stimulated by TNF; format: cell-based; conditions: TNF stimulation

C[S+]([O-])c1ccc(-c2nc(-c3ccc(F)cc3)c(-c3ccncc3)[nH]2)cc1 (stereo not shown) [SB 203180]
H3 pS10 signal induced by the ospF strain [1]: fully inhibited

N#CC(=C(/N)Sc1ccccc1N)/C(C#N)=C(\N)Sc1ccccc1N [U0126]
H3 pS10 signal induced by the ospF strain [1]: fully inhibited

B1: OspF: protein encoded by the Shigella ospF gene, a dual specific phosphatase; NCBI Accession CAC05773 (protein)
chain: MPIKKPCLKLNLDSLNVVRSEIPQMLSANERLKNNFNILYNQIRQYPAYYFKVASNVPTYSDICQSFSVMYQGFQIVNHSGDVFIHACRENPQSKGDFVGDKFHISIAREQVPLAFQILSGLLFSEDSPIDKWKITDMNRVSQQSRVGIGAQFTLYVKSDQECSQYSALLLHKIRQFIMCLESNLLRSKIAPGEYPASDVRPEDWKYVSYRNELRSDRDGSERQEQMLREEPFYRLMIE
direct dephosphorylation of histone H3 (metK9-pS10 / pS10) [2]: did not directly dephosphorylate | dephosphorylation of phospho-Erk2 (pErk2-GST): directly dephosphorylated | induction of H3 pS10 by okadaic acid [3]: efficiently prevented induction | IL-12 production in vivo (IL-12): down regulated | Vmax of Erk2 dephosphorylation (^33P-labeled Erk2): 9.89 pM/s | kcat of Erk2 dephosphorylation (^33P-labeled Erk2): 0.0001 s⁻¹ | Km (^33P-labeled Erk2; read-out: Km of Erk2 dephosphorylation): 0.204 µM | TNF-α-induced activation of NF-κB reporter (NF-κB reporter construct): did not impair | dephosphorylation of phospho JNK1 (phospho JNK1 Histidine): failed to dephosphorylate | dephosphorylation of phospho p38 (phospho p38-GST): directly dephosphorylated

B2: myc-labelled OspF: OspF with a myc label expressed from plasmid pRK5myc-OspF (protein)
chain: B1 chain
modifications: left off: small tags and cut ends
effect on JNK phosphorylation in cells (p46 and p54 JNK kinases): not | effect on Erk phosphorylation / ability to dephosphorylate Erk in cells (endogenous Erk): prevented phosphorylation | effect on p38 phosphorylation in cells (p38 MAP kinases): prevented phosphorylation

B3: MKP1: known mammalian dual specific phosphatase used as a control (protein, UniProt P28562 1-367, looked up)
Dual specificity protein …: MVMEVGTLDAGGLRALLGERAAQCLLLDCRSFFAFNAGHIAGSVNVRFSTIVRRRAKGAMGLEHIVPNAELRGRLLAGAYHAVVLLDERSAALDGAKRDGTLALAAGALCREARAAQVFFLKGGYEAFSASCPELCSKQSTPMGLSLPLSTSVPDSAESGCSSCSTPLYDQGGPVEILPFLYLGSAYHASRKDMLDALGITALINVSANCPNHFEGHYQYKSIPVEDNHKADISSWFNEAIDFIDSIKNAGGRVFVHCQAGISRSATICLAYLMRTNRVKLDEAFEFVKQRRSIISPNFSFMGQLLQFESQVLAPHCSAEAGSPAMAVLDRGTSTTTVFNFPVSIPVHSTNSALSYLQSPITTSPSC
kcat of Erk2 dephosphorylation (^33P-labeled Erk2): 0.0006 s⁻¹
